The values below come from PMC11027413.

The test deals with RNA polymerase II (RNAPII) (human (endogenous in HepG2)) (UniProt P24928). The test can be described thus: co-sedimentation; HepG2 cell lysate on a 10-40% glycerol gradient in NP-40 lysis buffer (50 mM HEPES pH 7.5, 100 mM NaCl), 50,000 rpm for 11 h at 4°C; fractions detected by Western blotting. A general note: A western blot detects proteins with antibodies after separation by electrophoresis.

Take “RBM22 (endogenous) (from UniProt Q9NW64 1-420) (natural protein)”: the percent of RBM22 linked with RNAPII was found to be 40%.
